Test results taken from paper PMC5700378.

Target: PrP^Sc enriched from elk brain infected with chronic wasting disease (elk) (UniProt P67986)
Experiment: SPR

Sequence of UniProt P67986 (P67986 25-233 limits assumed): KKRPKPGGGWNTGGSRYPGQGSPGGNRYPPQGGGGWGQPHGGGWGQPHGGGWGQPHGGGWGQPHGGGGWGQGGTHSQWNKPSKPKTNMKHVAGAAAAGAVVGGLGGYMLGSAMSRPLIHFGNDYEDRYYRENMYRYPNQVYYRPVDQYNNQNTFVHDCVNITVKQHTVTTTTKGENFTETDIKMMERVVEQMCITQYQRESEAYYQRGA

Substance “purified full-length CD21 (from UniProt P20023 21-1033) (receptor)” has a Kd of 16 nM.
